Values quoted from earlier work, collected in article PMC9084902, “Low-Molecular Weight Protamine Overcomes Chondroitin Sulfate Inhibition of Neural Regeneration” (Frontiers in Cell and Developmental Biology, 2022).

Tests used:
[1] = ref Rauvala, 1989; cited from earlier work
From the text: Protamine is a small 33 amino acid long protein that takes part in DNA packing during spermatogenesis ([Kasinsky et al., 2011]). Over 60% of the salmon protamine sequence is comprised of arginines so that it interacts strongly with negatively charged DNA phosphates in vivo and potentially with any other negatively charged molecules. […] Protamine sulfate is therefore widely used as a drug in cardiopulmonary bypass surgery to stop the effect of heparin ([Kaneda et al., 2005]; [Bromfield et al. ... || The CS chains even enhance the neurite outgrowth-promoting effect of HB-GAM, and we have ended up in a model according to which the CS chains of the CSPGs display a positive role by concentrating HB-GAM on the matrix and presenting it to neuron surface receptors. According to our model, two polycationic regions separated by a linker are essential to reverse the CS inhibition of neurite outgrowth ([Paveliev et al., 2016]; [Rauvala et al., 2017]). To test our hypothesis we decided to search for peptide structures that are similar to HB-GAM and display similar binding properties. Protamine displa ...

glypican-1 = conditions: through heparan sulfate chains; ref Paveliev et al., 2016; cited from earlier work
From the text: In the case of HB-GAM we have identified glypican-1 as a neuron surface receptor using unbiased mass spectrometry search of neuron binding sites for the substrate-attached HB-GAM ([Paveliev et al., 2016]). […] Interaction of glypican-1 with LMWP also appears likely since LMWP binds to heparin/heparan sulfate chains. Another possible cell surface receptor of LMWP is the transmembrane receptor PTPRZ (protein tyrosine ph ...

CNS neurons = conditions: aggrecan and a CSPG mixture isolated from brain; ref Paveliev et al., 2016; cited from earlier work
From the text: (§1) Our candidate protein to overcome the CS inhibition on neurite outgrowth and regeneration has been HB-GAM (heparin-binding growth-associated molecule; pleiotrophin) that was initially isolated by screening for factors from juvenile rat brain that enhance neurite outgrowth in CNS neurons ([Rauvala, 1989]; [Li et al., 1990]; [Merenmies and Rauvala, 1990]). […] Furthermore, we have recently shown t ...

[2] = test system: hemisection and hemicontusion spinal cord injury models; conditions: mice; ref Kulesskaya et al., 2021; cited from earlier work
From the text: as §1

B1: heparin-binding growth-associated molecule (protein, UniProt P63090 33-168, looked up)
Pleiotrophin: GKKEKPEKKVKKSDCGEWQWSVCVPTSGDCGLGTREGTRTGAECKQTMKTQRCKIPCNWKKQFGAECKYQFQAWGECDLNTALKTRTGSLKRALHNADCQKTVTISKPCGKLTKPKPQAESKKKKKEGKKQEKMLD
notes: initially isolated by screening for factors from juvenile rat brain that enhance neurite outgrowth in CNS neurons
binding to heparin [1]: binds avidly to heparin | binding to glypican-1 (glypican-1): binds to HB-GAM through its heparan sulfate chains | neurite outgrowth on CSPG substrates (CNS neurons): overcomes the CS inhibition and enhances neurite outgrowth on CSPG substrates | functional recovery after spinal cord injury [2]: enhances functional recovery in hemisection and hemicontusion spinal cord injury models in mice
